The target of series [1] is T1, MBP-mTERF6.1 (without transit peptide) (Arabidopsis thaliana, UniProt Q9SZL6 25-333).
T1 sequence: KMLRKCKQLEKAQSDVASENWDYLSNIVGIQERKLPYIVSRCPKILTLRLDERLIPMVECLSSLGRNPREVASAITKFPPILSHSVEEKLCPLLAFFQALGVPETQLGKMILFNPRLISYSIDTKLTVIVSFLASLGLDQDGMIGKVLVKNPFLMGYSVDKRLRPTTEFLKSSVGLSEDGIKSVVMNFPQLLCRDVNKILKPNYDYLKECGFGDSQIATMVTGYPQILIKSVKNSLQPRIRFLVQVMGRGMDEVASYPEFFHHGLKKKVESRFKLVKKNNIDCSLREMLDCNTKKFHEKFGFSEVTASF
The series can be described thus: EMSA; 5 mM MgCl2; shift greatly reduced by 200-fold unlabeled probe A; EMSA 20 uL: LightShift binding buffer, 5 mM MgCl2, 1 mM EDTA, 2.5% glycerol, 0.05% NP-40, 50 ng/uL poly(dI-dC), 20 fmol probe (printed 'fmal'), 0.5 ug protein. As to conditions: protein: recombinant; tags: N-terminal MBP (pMAL-c5X); label: 5' biotin.

Series [2] has as its target T1, MBP-mTERF6.1 (without transit peptide). Put plainly: EMSA; 5 mM MgCl2; stronger shift than probe A; weakened by 1-, 2-, 8-fold competitor; EMSA 20 uL: LightShift binding buffer, 5 mM MgCl2, 1 mM EDTA, 2.5% glycerol, 0.05% NP-40, 50 ng/uL poly(dI-dC), 20 fmol probe (printed 'fmal'), 0.5 ug protein. The settings on record: protein: recombinant; tags: N-terminal MBP (pMAL-c5X); label: 5' biotin.

B1: probe A (rpoA 3'-end, 122 bp) (dsDNA)
DNA 1: AATTTCTATTTTCCAGTCGAACCCATTTTAATTAATTAATTAAATTAATTAGAATTAGATATGTATCTAGGGAGAATTCATTTGGAAATGACTACTCCCTAGATACCTCCCTAGATACCCAC
DNA 2: GTGGGTATCTAGGGAGGTATCTAGGGAGTAGTCATTTCCAAATGAATTCTCCCTAGATACATATCTAATTCTAATTAATTTAATTAATTAATTAAAATGGGTTCGACTGGAAAATAGAAATT
For B1, in series [1], the binding result was “binds”.

B2: probe B (22 nt, single strand) (ssDNA)
DNA: AATTTCTATTTTCCAGTCGAAC
Take B2: the binding result in series [2] is listed as “binds”.

The values are drawn from PMC6085346, “A nuclear-encoded protein, mTERF6, mediates transcription termination of rpoA polycistron for plastid-encoded RNA polymerase-dependent chloroplast gene expression and chloroplast development”.
